The source of these data is paper PMC6805484 (2019).

B1: GFP-MKRN1^wt (Makorin Ring Finger Protein 1, wild type, N-terminally GFP-tagged) [human] / cytoplasmic poly(A)-binding protein PABPC4 (endogenous) [human (endogenous in HEK293T)] (parent complex)
chain 1: MAEAATPGTTATTSGAGAAAATAAAASPTPIPTVTAPSLGAGGGGGGSDGSGGGWTKQVTCRYFMHGVCKEGDNCRYSHDLSDSPYSVVCKYFQRGYCIYGDRCRYEHSKPLKQEEATATELTTKSSLAASSSLSSIVGPLVEMNTGEAESRNSNFATVGAGSEDWVNAIEFVPGQPYCGRTAPSCTEAPLQGSVTKEESEKEQTAVETKKQLCPYAAVGECRYGENCVYLHGDSCDMCGLQVLHPMDAAQRSQHIKSCIEAHEKDMELSFAVQRSKDMVCGICMEVVYEKANPSERRFGILSNCNHTYCLKCIRKWRSAKQFESKIIKSCPECRITSNFVIPSEYWVEEKEEKQKLILKYKEAMSNKACRYFDEGRGSCPFGGNCFYKHAYPDGRREEPQRQKVGTSSRYRAQRRNHFWELIEERENSNPFDNDEEEVVTFELGEMLLMLLAAGGDDELTDSEDEWDLFHDELEDFYDLDL
chain 2: MNAAASSYPMASLYVGDLHSDVTEAMLYEKFSPAGPVLSIRVCRDMITRRSLGYAYVNFQQPADAERALDTMNFDVIKGKPIRIMWSQRDPSLRKSGVGNVFIKNLDKSIDNKALYDTFSAFGNILSCKVVCDENGSKGYAFVHFETQEAADKAIEKMNGMLLNDRKVFVGRFKSRKEREAELGAKAKEFTNVYIKNFGEEVDDESLKELFSQFGKTLSVKVMRDPNGKSKGFGFVSYEKHEDANKAVEEMNGKEISGKIIFVGRAQKKVERQAELKRKFEQLKQERISRYQGVNLYIKNLDDTIDDEKLRKEFSPFGSITSAKVMLEDGRSKGFGFVCFSSPEEATKAVTEMNGRIVGSKPLYVALAQRKEERKAHLTNQYMQRVAGMRALPANAILNQFQPAAGGYFVPAVPQAQGRPPYYTPNQLAQMRPNPRWQQGGRPQGFQGMPSAIRQSGPRPTLRHLAPTGSECPDRLAMDFGGAGAAQQGLTDSCQSGGVPTAVQNLAPRAAVAAAAPRAVAPYKYASSVRSPHPAIQPLQAPQPAVHVQGQEPLTASMLAAAPPQEQKQMLGERLFPLIQTMHSNLAGKITGMLLEIDNSELLHMLESPESLRSKVDEAVAVLQAHHAKKEAAQKVGAVAAATS

In the experiment the parent is B1. Nature of the experiment: AP with quantitative MS-based proteomics (SILAC); HEK293T cells; combined ratios of three replicates; read off a plot.
For chain 1 A169S, chain 1 F172A, chain 1 P174A, the screen value is roughly -9.1 z-score.
